{"source": "paper PMC3750215", "tested_on": "Mdj1 (wt, mature)", "experiment": "EMSA", "conditions": "EMSA with 0.36 nM 32P-ori5 DNA; buffer, salt, pH and temperature not given (as described in ref 35)", "note": "pKd: −log10 of the molar value.", "data": [{"substance": "ori5 71 bp fragment", "values": [{"measurement": "pKd", "result": 6.68}]}]}
